The target in assay [1] is T1, human P-cadherin on the surface of cells (human, UniProt P22223 108-829).
T1 construct: whole, on cells; also called native P-cadherin on the surface of A431 cells; SW480 cells stably expressing P-cadherin
In words: epitope competition on A431 cells; competitor: biotinylated 129-1c4 IgG at 1x KD, DELFIA.

The target in assay [2] is T1, human P-cadherin on the surface of cells. In words: cell-based or functional assay.
Assay [3] has the same target. As to the kind of experiment: cell-based or functional assay. This is another data set of the same source.
The target of assay [4] is T2, Recombinant human P-cadherin Fc (R&D Systems 861-PC-100) (human, UniProt P22223 108-654).
T2 construct: also called recombinant human P-cadherin/Fc fusion protein; hCad/Fc; not shown: Fc part of the bought fusion protein
As to the kind of experiment: ELISA; KD on E-cadherin over KD on P-cadherin. For orientation: An ELISA detects its analyte on a solid surface through an enzyme-linked reagent.

The target of assay [5] is T1, human P-cadherin on the surface of cells. As to the kind of experiment: cell-based or functional assay. This is another data set of the same source.
Assay [6] concerns the target T2, Recombinant human P-cadherin Fc (R&D …). As to the kind of experiment: ELISA on coated antigen, relative KD.
The target in assay [7] is T3, recombinant human E-cadherin (R&D Systems 648-EC-100) (human, UniProt P12830 155-707).
T3 construct: Bought protein
T3 sequence (looked up): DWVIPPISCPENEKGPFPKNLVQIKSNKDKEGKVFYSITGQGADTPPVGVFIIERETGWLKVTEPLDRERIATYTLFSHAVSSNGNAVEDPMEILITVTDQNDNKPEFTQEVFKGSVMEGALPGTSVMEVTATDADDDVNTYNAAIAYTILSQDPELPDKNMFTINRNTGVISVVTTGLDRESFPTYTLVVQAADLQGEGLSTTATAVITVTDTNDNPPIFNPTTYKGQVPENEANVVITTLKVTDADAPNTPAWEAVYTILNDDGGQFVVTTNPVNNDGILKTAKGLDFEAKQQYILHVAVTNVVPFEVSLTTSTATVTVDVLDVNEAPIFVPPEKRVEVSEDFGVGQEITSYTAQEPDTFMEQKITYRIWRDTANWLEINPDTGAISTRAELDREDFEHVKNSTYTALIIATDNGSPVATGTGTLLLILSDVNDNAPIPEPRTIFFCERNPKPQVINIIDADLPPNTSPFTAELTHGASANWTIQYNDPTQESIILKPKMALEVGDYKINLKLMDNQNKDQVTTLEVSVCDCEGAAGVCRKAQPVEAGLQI
As to the kind of experiment: ELISA on coated antigen, relative KD.

B1: scFv variant of 129-1c4 with VH CDR3 SEQ ID NO: 37 and VL CDR3 SEQ ID NO: 277 (scFv, V domains shown)
VH: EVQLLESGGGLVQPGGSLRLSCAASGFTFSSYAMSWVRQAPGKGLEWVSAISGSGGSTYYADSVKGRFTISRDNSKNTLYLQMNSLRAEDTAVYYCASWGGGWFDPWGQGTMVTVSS
VL: QSALTQPASVSGSPGQSITISCTGTSNDVGAYNYVSWYQQHPGKAPKLILSEVNKRPSGVSNRFSGSKSGNTASLSISGLQAEDEADYYCSSFTSGDHWVLFGGGTKLTVL
notes: His-tagged purified scFv; also called 37 / 277
Take B1: in assay [1], the half-inhibitory concentration (IC50) turned out to be 2.2 nM.

B2: scFv variant of 129-1c4 with VH CDR3 SEQ ID NO: 37 and VL CDR3 SEQ ID NO: 305 (scFv, V domains shown)
VH: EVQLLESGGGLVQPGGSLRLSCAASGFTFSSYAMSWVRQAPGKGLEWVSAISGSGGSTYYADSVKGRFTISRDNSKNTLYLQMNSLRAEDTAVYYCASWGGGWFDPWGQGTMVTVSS
VL: QSALTQPASVSGSPGQSITISCTGTSNDVGAYNYVSWYQQHPGKAPKLILSEVNKRPSGVSNRFSGSKSGNTASLSISGLQAEDEADYYCSSFTSGQQWVLFGGGTKLTVL
notes: His-tagged purified scFv; also called 37 / 305
As to B2, the IC50 in assay [1] was determined as 2.19 nM.

B3: scFv variant of 129-1c4 with VH CDR3 SEQ ID NO: 195 and VL CDR3 SEQ ID NO: 47 (scFv, V domains shown)
VH: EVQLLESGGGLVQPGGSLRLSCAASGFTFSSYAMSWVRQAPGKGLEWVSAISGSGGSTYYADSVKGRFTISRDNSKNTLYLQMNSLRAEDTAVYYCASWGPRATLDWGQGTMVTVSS
VL: QSALTQPASVSGSPGQSITISCTGTSNDVGAYNYVSWYQQHPGKAPKLILSEVNKRPSGVSNRFSGSKSGNTASLSISGLQAEDEADYYCSSFTSGSTFMLFGGGTKLTVL
notes: His-tagged purified scFv; also called 195 / 47
The molecule B3 registered an IC50 in assay [1] of 1.29 nM. This IC50 is about 1.7-fold lower than that of the molecule before.

B4: scFv variant of 129-1c4 with VH CDR3 SEQ ID NO: 165 and VL CDR3 SEQ ID NO: 47 (scFv, V domains shown)
VH: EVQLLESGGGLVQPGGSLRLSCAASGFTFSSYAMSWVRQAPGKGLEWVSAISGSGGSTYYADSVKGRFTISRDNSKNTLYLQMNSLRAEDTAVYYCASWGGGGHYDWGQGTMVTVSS
VL: QSALTQPASVSGSPGQSITISCTGTSNDVGAYNYVSWYQQHPGKAPKLILSEVNKRPSGVSNRFSGSKSGNTASLSISGLQAEDEADYYCSSFTSGSTFMLFGGGTKLTVL
notes: His-tagged purified scFv; also called 165 / 47
B4 registered a half-inhibitory concentration (IC50) in assay [1] of 5.11 nM.

B5: 194-e01 (antibody, V domains shown)
VH: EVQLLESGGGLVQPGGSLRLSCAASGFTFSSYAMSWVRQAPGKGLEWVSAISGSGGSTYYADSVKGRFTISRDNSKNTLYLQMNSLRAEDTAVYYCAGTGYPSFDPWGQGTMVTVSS
VL: QSALTQPASVSGSPGQSITISCTGTSNDVGAYNYVSWYQQHPGKAPKLILSEVNKRPSGVSNRFSGSKSGNTASLSISGLQAEDEAGYYCTSYRAGSTFMLFGGGTKLTVL
notes: Tested as IgG converted from scFv
In the case of B5, in assay [2], the “SW480 Aggregation Assay Mean IC50” value amounted to 1.3 nM. Also, the “SW480 Spheroid Disruption Assay, Fold Increased Disruption vs Control at 5 nM” value in assay [3] amounted to 16 fold. In addition, in assay [4], the “KD(E)/KD(P)” value came out at 183. The “A431 Adhesion Assay Mean IC50 (nM) (n = 3)” value in assay [5] came to 0.147 nM. Besides, the Kd was determined as 0.112 nM in assay [6] and 20.5 nM in assay [7].

B6: scFv variant of 129-1c4 with VH CDR3 SEQ ID NO: 37 and VL CDR3 SEQ ID NO: 288 (scFv, V domains shown)
VH: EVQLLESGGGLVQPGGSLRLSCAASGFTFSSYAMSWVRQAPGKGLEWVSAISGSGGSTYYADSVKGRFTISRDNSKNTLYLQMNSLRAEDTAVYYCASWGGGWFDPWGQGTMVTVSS
VL: QSALTQPASVSGSPGQSITISCTGTSNDVGAYNYVSWYQQHPGKAPKLILSEVNKRPSGVSNRFSGSKSGNTASLSISGLQAEDEADYYCSSFTSAIPWSLFGGGTKLTVL
notes: His-tagged purified scFv; also called 37 / 288
Regarding B6, the IC50 in assay [1] worked out at 6.67 nM.

B7: scFv variant of 129-1c4 with VH CDR3 SEQ ID NO: 37 and VL CDR3 SEQ ID NO: 297 (scFv, V domains shown)
VH: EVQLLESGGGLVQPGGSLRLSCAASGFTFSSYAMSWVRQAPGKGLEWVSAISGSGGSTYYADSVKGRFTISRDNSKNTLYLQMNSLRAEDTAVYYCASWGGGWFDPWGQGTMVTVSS
VL: QSALTQPASVSGSPGQSITISCTGTSNDVGAYNYVSWYQQHPGKAPKLILSEVNKRPSGVSNRFSGSKSGNTASLSISGLQAEDEADYYCSSFTSSAHFVLFGGGTKLTVL
notes: His-tagged purified scFv; also called 37 / 297
As for B7, the concentration for half-maximal inhibition (IC50) in assay [1] was determined as 2.49 nM.

B8: scFv variant of 129-1c4 with VH CDR3 SEQ ID NO: 37 and VL CDR3 SEQ ID NO: 43 (scFv, V domains shown)
VH: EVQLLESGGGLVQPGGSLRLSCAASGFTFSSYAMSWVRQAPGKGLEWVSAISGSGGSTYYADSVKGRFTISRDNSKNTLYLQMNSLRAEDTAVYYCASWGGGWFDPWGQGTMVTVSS
VL: QSALTQPASVSGSPGQSITISCTGTSNDVGAYNYVSWYQQHPGKAPKLILSEVNKRPSGVSNRFSGSKSGNTASLSISGLQAEDEADYYCTSYTMGSTFMLFGGGTKLTVL
notes: His-tagged purified scFv; also called 37 / 43
Regarding B8, in assay [1], the IC50 turned out to be 5.67 nM.

B9: scFv variant of 129-1c4 with VH CDR3 SEQ ID NO: 37 and VL CDR3 SEQ ID NO: 299 (scFv, V domains shown)
VH: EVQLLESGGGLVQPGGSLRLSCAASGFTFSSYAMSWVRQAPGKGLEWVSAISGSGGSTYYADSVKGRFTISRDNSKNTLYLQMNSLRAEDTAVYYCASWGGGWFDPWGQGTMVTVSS
VL: QSALTQPASVSGSPGQSITISCTGTSNDVGAYNYVSWYQQHPGKAPKLILSEVNKRPSGVSNRFSGSKSGNTASLSISGLQAEDEADYYCSSFTSDRAFNLFGGGTKLTVL
notes: His-tagged purified scFv; also called 37 / 299
For B9, the IC50 in assay [1] was determined as 1.97 nM. This IC50 lies about 2.9-fold lower than the previous one.

B10: 196-h02 (antibody, V domains shown)
VH: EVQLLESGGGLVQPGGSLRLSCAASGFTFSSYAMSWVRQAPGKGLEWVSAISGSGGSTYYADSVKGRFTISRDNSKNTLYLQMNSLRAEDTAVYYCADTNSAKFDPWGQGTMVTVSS
VL: QSALTQPASVSGSPGQSITISCTGTSNDVGAYNYVSWYQQHPGKAPKLILSEVNKRPSGVSNRFSGSKSGNTASLSISGLQAEDEADYYCTSYTMGSTFMLFGGGTKLTVL
notes: Tested as IgG converted from scFv; also called 196-h02 IgG
In the case of B10, the “SW480 Aggregation Assay Mean IC50” value in assay [2] came out at 3.2 nM. Further, the “SW480 Spheroid Disruption Assay, Fold Increased Disruption vs Control at 5 nM” value in assay [3] came out at 10 fold. Moreover, the “KD(E)/KD(P)” value in assay [4] was determined as 326. Besides, in assay [5], the “A431 Adhesion Assay Mean IC50 (nM) (n = 3)” value worked out at 0.148 nM. In addition, the Kd in assay [6] was determined as 0.102 nM.

B11: scFv variant of 129-1c4 with VH CDR3 SEQ ID NO: 37 and VL CDR3 SEQ ID NO: 303 (scFv, V domains shown)
VH: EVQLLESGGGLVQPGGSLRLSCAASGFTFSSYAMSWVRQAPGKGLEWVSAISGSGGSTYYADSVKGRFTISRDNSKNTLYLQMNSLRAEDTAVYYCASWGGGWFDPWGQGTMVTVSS
VL: QSALTQPASVSGSPGQSITISCTGTSNDVGAYNYVSWYQQHPGKAPKLILSEVNKRPSGVSNRFSGSKSGNTASLSISGLQAEDEADYYCSSFTSGRAFNLFGGGTKLTVL
notes: His-tagged purified scFv; also called 37 / 303
Consider B11, for which the half-maximal inhibitory concentration (IC50) in assay [1] was determined as 1.47 nM. This lies in the single-digit nanomolar range.

B12: scFv variant of 129-1c4 with VH CDR3 SEQ ID NO: 37 and VL CDR3 SEQ ID NO: 274 (scFv, V domains shown)
VH: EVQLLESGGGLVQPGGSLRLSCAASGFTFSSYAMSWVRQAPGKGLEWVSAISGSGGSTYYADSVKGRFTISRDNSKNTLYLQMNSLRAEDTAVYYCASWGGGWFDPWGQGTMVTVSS
VL: QSALTQPASVSGSPGQSITISCTGTSNDVGAYNYVSWYQQHPGKAPKLILSEVNKRPSGVSNRFSGSKSGNTASLSISGLQAEDEADYYCGAYSAGSTFMLFGGGTKLTVL
notes: His-tagged purified scFv; also called 37 / 274
B12 registered an IC50 in assay [1] of 8.73 nM. Against the preceding molecule, the IC50 is about 5.9-fold higher.

As a reminder, the IC50 is the concentration that gives 50% inhibition. The Kd is a measure of binding affinity in units of concentration.

These data come from US20060240001A1 (AGOURON PHARMACEUTICALS, published 2006).
